Laboratory results: patent US20260226161A1 (EXELIXIS, published 2026)
Numbering of substitutions follows the chain as printed.

Columns and labels:
[1] = target: T1, NKG2A expressed on KHYG-1 cells (endogenous) (human, UniProt P26715 1-233; Q13241 1-179); assay: flow cytometry on KHYG-1 cells expressing endogenous NKG2A
T1 construct: whole, on cells; Surface NKG2A copy number of approximately 10-20K; also called KHYG-1 cells expressing endogenous NKG2A; NKG2A-expressing cells
Experimental: Antibodies that were selected for binding to NKG2A, for example, such as those described in Examples 1 and 2, were evaluated for binding to cells that express NKG2A.
Cells were harvested at 70-90% confluence on the day of the assay. Cells were collected by centrifugation at 200×g for 5 minutes and media was removed. Cells were resuspended at 2×10⁶ cells per mL in cold PBS. […] 50 μL per well of the antibody dilution was plated in a 96 well V-bottom plate (Costar 3897). 50 μL per well of cell suspension was added. Plates were placed at 4° C. for 45-60 minutes.

[2] = target: T2, biotinylated cyno NKG2A/CD94 heterodimer (extracellular domains) (cynomolgus, UniProt Q9MZJ3 94-233; Q9MZK9 32-179, biotinylated); assay: BLI (Octet), bivalent
T2 construct: also called Cynomolgus NKG2A protein; not shown: fusion partner/tags ('similar approach' to the human proteins); fusion partner ('similar approach')
T2 sequence (Q9MZJ3 other isoform, or with tags, fused parts or gaps, chain 1 of 2): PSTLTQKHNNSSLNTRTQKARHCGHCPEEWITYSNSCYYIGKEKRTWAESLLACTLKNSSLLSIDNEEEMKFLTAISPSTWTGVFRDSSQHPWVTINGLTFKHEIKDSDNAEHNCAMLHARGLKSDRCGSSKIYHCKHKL
T2 sequence (Q9MZK9 32-179, chain 2 of 2): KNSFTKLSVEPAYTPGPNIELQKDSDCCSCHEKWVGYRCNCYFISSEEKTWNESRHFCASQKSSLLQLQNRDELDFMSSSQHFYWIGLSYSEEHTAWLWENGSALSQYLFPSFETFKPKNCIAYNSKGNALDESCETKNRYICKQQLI
Experimental: (§1) A total of 58 binders formatted as IgG antibodies from phage display as described in Example 1 were further tested for binding.
(§2) The antibodies were evaluated for binding to (1) human NKG2A, (2) human NKG2C, and (3) cyno NKG2A. Bivalent interaction of binders to biotinylated human NKG2A (see Example 1), biotinylated human NKG2C/CD94 heterodimer, or biotinylated cyno NKG2A/CD94 heterodimer immobilized on a streptavidin biosensor was monitored using Octet (Pall ForteBio) instrument. For these assays, human NKG2C/CD94 and cyno NKG2A/CD94 were prepared using the procedure as described in Example 1. Similarly, the extracellular domain of human NKG2C was expressed and purified from HEK293 cells as heterodimer with CD94 as Fc fusions. The extracellular domain of NKG2C used for selection campaigns encompassed amino acid sequence Ile94-Leu231 (Accession No. P26717-1; SEQ ID NO: 75). The gene encoding CD94 (Accession No. Q13241-1, SEQ ID NO:76), Lys33-Ile159 was synthesized from IDT and cloned into mammalian expression vector as an N-terminal Fc (hole) fusion. Plasmids encoding NKG2C-Fc fusion and CD94-Fc fusion were co-transfected into HEK293T cells using standard procedures. NKG2C/CD94 heterodimer was purified from cell supernatant using Protein A resins. Similar approach was used to obtain Cynomolgus NKG2A protein. Specifically, extracellular domain of Cynomolgus NKG2A contained amino acid Pro 94-Leu 233. […] Extracellular domain of Cynomolgus CD94 contained amino acid residues Lys 33-Ile 179 (Accession No. Q68VD4-1; SEQ ID NO: 78).

[3] = target: T3, biotinylated human NKG2C/CD94 heterodimer (extracellular domains, Fc fusions) (human, UniProt P26717 94-231; Q13241 32-179, biotinylated); assay: BLI (Octet), bivalent
T3 construct: not shown: N-terminal Fc (hole)
T3 sequence (P26717 other isoform, or with tags, fused parts or gaps, chain 1 of 2): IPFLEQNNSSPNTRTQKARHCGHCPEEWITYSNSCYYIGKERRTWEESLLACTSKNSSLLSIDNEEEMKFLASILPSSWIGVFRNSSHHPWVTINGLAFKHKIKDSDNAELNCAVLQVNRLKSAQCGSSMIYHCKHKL
T3 sequence (Q13241 32-179, chain 2 of 2): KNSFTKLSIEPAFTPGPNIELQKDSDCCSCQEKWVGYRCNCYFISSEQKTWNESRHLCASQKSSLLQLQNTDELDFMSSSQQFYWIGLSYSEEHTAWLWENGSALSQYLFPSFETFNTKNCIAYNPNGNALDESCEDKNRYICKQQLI
Experimental: as §1, §2

[4] = target: T3, biotinylated human NKG2C/CD94 …; assay: BLI (Octet), summary of the examples
Experimental: The antibodies were evaluated for binding to (1) human NKG2A, (2) human NKG2C, and (3) cyno NKG2A. Bivalent interaction of binders to biotinylated human NKG2A (see Example 1), biotinylated human NKG2C/CD94 heterodimer, or biotinylated cyno NKG2A/CD94 heterodimer immobilized on a streptavidin biosensor was monitored using Octet (Pall ForteBio) instrument. For these assays, human NKG2C/CD94 and cyno NKG2A/CD94 were prepared using the procedure as described in Example 1. Similarly, the extracellular domain of human NKG2C was expressed and purified from HEK293 cells as heterodimer with CD94 as Fc fusions. The extracellular domain of NKG2C used for selection campaigns encompassed amino acid sequence Ile94-Leu231 (Accession No. P26717-1; SEQ ID NO: 75). The gene encoding CD94 (Accession No. Q13241-1, SEQ ID NO:76), Lys33-Ile159 was synthesized from IDT and cloned into mammalian expression vector as an N-terminal Fc (hole) fusion. Plasmids encoding NKG2C-Fc fusion and CD94-Fc fusion were co-transfected into HEK293T cells using standard procedures. NKG2C/CD94 heterodimer was purified from cell supernatant using Protein A resins. Similar approach was used to obtain Cynomolgus NKG2A protein. Specifically, extracellular domain of Cynomolgus NKG2A contained amino acid Pro 94-Leu 233. […]

[5] = target: T4, cynomolgus NKG2A/CD94 (soluble antigen of the equilibrium assay) (cynomolgus, UniProt Q68VD2 94-233; Q68VD4 32-179, Biotinylated in the Octet assays of Example 2; state in the SPR equilibrium assay not seen.); assay: SPR equilibrium response, Langmuir isotherm; antibody on chip, soluble antigen
T4 construct: also called Cyno NKG2A/CD94; copies: 1 + 1
T4 sequence (NKG2A, as listed by the source limits assumed, chain 1 of 2): as the sequence (Q9MZJ3 other isoform, or with tags, fused parts or gaps, chain 1 of 2) above
T4 sequence (CD94, as listed by the source limits assumed, chain 2 of 2): as the sequence (Q9MZK9 32-179, chain 2 of 2) above
Experimental: In addition, a method using an equilibrium approach was performed. Kd determinations for cynomolgus NKG2A/CD94 were performed by measuring the signal response at equilibrium. […] The equilibrium response signals and corresponding antigen concentrations were then input into a Langmuir binding isotherm model, and the Kd was determined through nonlinear regression. Averages and standard deviations were calculated from 24 replicate chip locations for each molecule.

[6] = target: Cyno PD-L1 (cyno, UniProt G7PSE7 19-238); assay: SPR (Carterra), antibody on chip, soluble antigen
Chain of Cyno PD-L1 (G7PSE7 entry or part of it limits assumed): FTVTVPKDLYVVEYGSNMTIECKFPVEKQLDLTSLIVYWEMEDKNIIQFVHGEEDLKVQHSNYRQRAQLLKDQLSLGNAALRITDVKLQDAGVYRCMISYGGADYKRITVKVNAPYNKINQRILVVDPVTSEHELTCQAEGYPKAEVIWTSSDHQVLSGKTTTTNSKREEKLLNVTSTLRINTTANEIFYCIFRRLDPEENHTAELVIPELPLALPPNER

[7] = target: T5, Human NKG2A & CD94 with mouse IgG2a Fc tag (AcroBiosystems) (human, UniProt P26715 94-233; Q13241 32-179, limits assumed); assay: SPR (Carterra), antibody on chip, soluble antigen
T5 construct: Bought soluble antigen of the Carterra assay; also called hNKG2A; not shown: mouse IgG2a Fc tag
T5 sequence (P26715 94-233 limits assumed, chain 1 of 2): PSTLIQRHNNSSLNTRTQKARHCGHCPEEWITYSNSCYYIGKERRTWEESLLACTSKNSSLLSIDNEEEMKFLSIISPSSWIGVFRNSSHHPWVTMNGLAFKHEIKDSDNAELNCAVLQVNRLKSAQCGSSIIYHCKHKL
T5 sequence (Q13241 32-179 limits assumed, chain 2 of 2): as the sequence (Q13241 32-179, chain 2 of 2) above

[8] = target: T6, Human PD-L1 with His tag (AcroBiosystems) (human, UniProt Q9NZQ7 19-238); assay: SPR (Carterra), antibody on chip, soluble antigen
T6 construct: Bought protein; also called hPD-L1; not shown: His tag
T6 sequence (Q9NZQ7 19-238 limits assumed): as the sequence (G7PSE7 entry or part of it limits assumed) above, with T33A, S34A, N62S, Q68R, R82Q, L173F, A185T, I192T, L215H counted along it

[9] = target: T1, NKG2A expressed on KHYG-1 cells …; assay: flow cytometry competition; inhibition of HLA-E tetramer binding to KHYG-1 cells; second of the two EC50 values printed for P12×A2; the patent does not say what tells them apart
Experimental: (§3) 15 μL per well of binder dilution at 2× concentration was plated in a 96-well plate (Costar 3897). 15 μL per well of cell suspension at 5×10⁶ cells per mL was added. Plates were placed at 4° C. for 30 minutes. Following the incubation, 5 μL per well of Fc block (BD Pharmingen Cat #564220) was added at a final concentration of 500 ng per well. Plates were placed at 4° C. for 10 minutes. […] Plates were placed at 4° C. for 1 hour. Following the incubation, 100 μL per well of PBS was added and plate was centrifuged at 400×g for 7 minutes. Supernatant was removed by flicking the plate. Cells were resuspended in 50 μL per well of PBS and analyzed by flow cytometry (Intellicyt).

[10] = target: T1, NKG2A expressed on KHYG-1 cells …; assay: flow cytometry competition; inhibition of HLA-E tetramer binding to KHYG-1 cells; first of the two EC50 values printed for P12×A2; the patent does not say what tells them apart
Experimental: as §3

[11] = target: T7, PD-L1 expressed on cells (UniProt Q9NZQ7 19-290, limits assumed); assay: cell-based or functional assay
T7 sequence (Q9NZQ7 19-290 limits assumed): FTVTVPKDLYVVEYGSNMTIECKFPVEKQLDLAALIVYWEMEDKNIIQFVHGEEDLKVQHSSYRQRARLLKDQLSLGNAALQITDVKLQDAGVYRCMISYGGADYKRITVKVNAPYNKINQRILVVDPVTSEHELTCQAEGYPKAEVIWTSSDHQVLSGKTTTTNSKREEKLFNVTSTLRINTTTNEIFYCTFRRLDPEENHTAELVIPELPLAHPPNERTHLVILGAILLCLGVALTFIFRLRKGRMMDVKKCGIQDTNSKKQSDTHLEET

[12] = target: T7, PD-L1 expressed on cells; assay: flow cytometry on MC/CAR cells expressing PD-L1
Experimental: (§4) Cells were collected by centrifugation at 400×g for 7 minutes and primary antibody was removed. 50 μL per well of AF488 goat anti human IgG Fab (Jackson Immuno Research 109-547-003) at 1:100 dilution was added. Plates were placed at 4° C. for 30 minutes.
(§5) Cells were collected by centrifugation at 400×g for 7 minutes and secondary antibody was removed. Cells were resuspended in 50 μL per well of PBS and analyzed by flow cytometry. Binding curves were calculated using the mean fluorescence intensity (MFI) of the FITC fluorescence signal on the cells. Bispecific antibody binding was evaluated in KHYG-1 cells expressing endogenous NKG2A and in MC/CAR cells expressing PD-L1. Cells were harvested and assayed for binding as described above.

[13] = target: T1, NKG2A expressed on KHYG-1 cells …; assay: flow cytometry on KHYG-1 cells expressing endogenous NKG2A; remark: listed apart in the source
Experimental: as §4, §5

T1 sequence (P26715 whole entry, chain 1 of 2): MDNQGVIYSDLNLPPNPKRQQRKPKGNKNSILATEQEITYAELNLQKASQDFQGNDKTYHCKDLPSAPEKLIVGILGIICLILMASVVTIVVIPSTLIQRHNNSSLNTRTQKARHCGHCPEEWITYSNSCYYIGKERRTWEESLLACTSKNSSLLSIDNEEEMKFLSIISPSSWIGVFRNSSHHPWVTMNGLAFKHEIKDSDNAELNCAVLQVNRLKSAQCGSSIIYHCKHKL
T1 sequence (Q13241 whole entry, chain 2 of 2): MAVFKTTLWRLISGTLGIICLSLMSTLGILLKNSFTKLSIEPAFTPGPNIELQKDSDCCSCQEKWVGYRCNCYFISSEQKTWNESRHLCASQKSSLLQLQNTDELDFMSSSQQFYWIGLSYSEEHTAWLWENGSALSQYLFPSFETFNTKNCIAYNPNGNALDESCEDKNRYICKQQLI

B1: Antibody Clone A11 (antibody, human IgG1, kappa, V domains shown)
VH: EVQLVESGGGLVQPGGSLRLSCAASGFTFSWYYIHWVRQAPGKGLEWVAVIDPISSYTYYADSVKGRFTISADTSKNTAYLQMNSLRAEDTAVYYCARGFDRAMDYWGQGTLVTVSS
VL: DIQMTQSPSSLSASVGDRVTITCRASKSVSSALAWYQQKPGKAPKLLIYVGSSRYSGVPSRFSGSRSGTDFTLTISSLQPEDFATYYCQQYYSSPYTFGQGTKVEIKR
- EC50 [1]: 4.35 nM
- binding result [2]: no binding
- binding result [3]: no binding

B2: Antibody Clone A3 (antibody, human IgG1, kappa, V domains shown)
VH: EVQLVESGGGLVQPGGSLRLSCAASGFTFSSYYIHWVRQAPGKGLEWVASISPYDGYTDYADSVKGRFTISADTSKNTAYLQMNSLRAEDTAVYYCARSSDFSPWTSSGGMDYWGQGTLVTVSS
VL: B1 VL with K27Q, L33V, V50S, G51A, R54L, Y92G, P95L, Y96R
- EC50 [1]: 0.303 nM
- binding result [4]: no binding

B3: Antibody Clone A2 (antibody, human IgG1, kappa, V domains shown)
VH: B2 VH with I51Y, S52V, Y54E, S103I
VL: B1 VL with K27Q, S31R, L33V, V50S, G51A, R54L, Y55H, Y92G, P95A, Y96R
- EC50 [1]: 37.5 nM
- binding result [2]: no binding
- binding result [4]: no binding

B4: P12 × A2 (1 × 1 format) (bispecific antibody)
heavy 1: DIQMTQSPSSLSASVGDRVTITCRASQSVSSAVAWYQQKPGKAPKLLIYSASSLYSGVPSRFSGSRSGTDFTLTISSLQPEDFATYYCQQFMLEPITFGQGTKVEIKGQPREPQVCTLPPSRDELTKNQVSLTCLVRGFYPSDIAVEWESNGQPENNYKTTPPVLDSDGSFFLYSKLTVDKSRWQQGNVFSCSVMHEALHNHYTQKSLSLSPGKDKTHTCPPCPAPEAAGGPSVFLFPPKPKDTLMISRTPEVTCVVVDVSHEDPEVKFNWYVDGVEVHNAKTKPREEQYNSTYRVVSVLTVLHQDWLNGKEYKCKVSNKALKAPIEKTISKAKGQPREPQVYTLPPSREEMTKNQVSLSCAVKGFYPSDIAVEWESNGQPENNYKTTPPVLDSDGSFFLVSKLTVDKSRWQQGNVFSCSVMHEALHNHYTQKSLSLSPGK
light 1: EVQLVESGGGLVQPGGSLRLSCAASGFTFSSYYIHWVRQAPGKGLEWVATINSRGGFTLYADSVKGRFTISADTSKNTAYLQMNSLRAEDTAVYYCARGYTLTPVLDYWGQGTLVTVSSAQPREPQVYTLPPCRDWLTKNQVSLTCLVKGFYPSDIAVEWESNGQPENNYKTTPPVLDSDGSFFLYSKLTVDKSRWQQGNVFSCSVMHEALHNHYTQKSLSLSPGK
heavy 2: not shown
light 2: EVQLVESGGGLVQPGGSLRLSCAASGFTFSSYYIHWVRQAPGKGLEWVASYVPEDGYTDYADSVKGRFTISADTSKNTAYLQMNSLRAEDTAVYYCARSSDFIPWTSSGGMDYWGQGTLVTVSSASTKGPSVFPLAPSSKSTSGGTAALGCLVKDYFPEPVTVSWNSGALTSGVHTFPAVLQSSGLYSLSSVVTVPSSSLGTQTYICNVNHKPSNTKVDKKVEPKSC
notes: One PD-L1 site, one NKG2A site; also called P12×A2, sFc; P12 × A2 sFc
- Kd [5]: 42 nM
- Kd [6]: 0.1 nM
- koff [6]: 6e-05 s⁻¹
- kon [6]: 560000 M⁻¹ s⁻¹
- Kd [7]: 0.21 nM
- koff [7]: 8e-05 s⁻¹
- kon [7]: 360000 M⁻¹ s⁻¹
- Kd [8]: 0.13 nM
- koff [8]: 7e-05 s⁻¹
- kon [8]: 530000 M⁻¹ s⁻¹
- EC50 [9]: 65.2 nM
- EC50 [10]: 21 nM
- IC50 of inhibiting PD-1/PD-L1 interaction in PD-L1+MDA-MB-231 cells (PD-1/PD-L1 Signaling Bioassay, chemiluminescent signal) [11]: 0.408 nM
- EC50 [12]: 55.9 nM
- EC50 [13]: 4.66 nM
